From publication PMC4238058, “Phase transitions of multivalent proteins can promote clustering of membrane receptors” (eLife, 2014)

B1: triply phosphorylated TIR3Y (His8-tagged human Nephrin tail with its pTyr sites replaced by the pTyr motif of EPEC Tir) (domain or fragment)
chain: GGSLEHHHHHHHHGGSCGGSGGSGGSGGSHMHIYDEVAADPPPSGAWGHIYDEVAADPWDLHWPEDTFQDPRHIYDEVAADP
modifications: phosphotyrosine in each of the three Tir motifs (triply phosphorylated); fluorescent in the bilayer experiments
notes: N-terminal stretch as printed: holds the His8 tag named under tags, the Gly-Gly-Ser linker with the cysteine, and HM before the first Tir motif; Nephrin, human, stretch between the first and second pTyr sites; Nephrin, human, stretch between the second and third pTyr sites, with Phe at 1210 as in Nephrin3Y; also called p-TIR; p-TIR (3pY); source: E. coli BL21(DE3)T1R, purified (told for …)
B2: triply phosphorylated His8-tagged Nephrin cytoplasmic tail (amino acids 1174-1223, Y1183F, Y1210F; pTyr1176, pTyr1193, pTyr1217) (domain or fragment, human)
chain: GGSLEHHHHHHHHGGSCGGSGGSGGSGGSHLYDEVERTFPPSGAWGPLYDEVQMGPWDLHWPEDTFQDPRGIYDQVAGD
modifications: phosphotyrosine at Tyr1176, Tyr1193 and Tyr1217; maleimide Alexa488 on the single cysteine of the linker (bilayer experiments)
notes: N-terminal stretch as printed: holds the His8 tag named under tags and the (Gly-Gly-Ser)5 linker with the cysteine that is labelled; Nephrin, human, cytoplasmic tail residues 1174-1223 with Y1183F and Y1210F; also called p-Nephrin; Nephrin3Y (before phosphorylation); source: E. coli BL21(DE3)T1R, purified (Ni-NTA, Source 15Q, SD200); phosphorylated with Lck kinase and purified again (Source 15Q, …)

Key:
[1] = biological target: T1, Nck (human, WT, residues 1-377) (human); test: ITC; Nck (150 uM) in the syringe titrated into 5 uM p-Nephrin (3pY) or p-TIR (3pY); 25 mM Hepes pH 7.5, 150 mM NaCl, 1 mM MgCl2, 2 mM TCEP; three-site binding model with a single affinity for Nck (NITPIC, Sedphat); the constant is that of one pTyr site; settings: both partners purified
T1 construct: two extra N-terminal residues printed before Met1; Nck, human, WT, residues 1-377; source: E. coli BL21(DE3)T1R, purified (glutathione sepharose, TEV on beads, Source 15Q, Source 15S, SD75)

[2] = biological target: T2, Nck (cysteine-modified; human, residues 1-377, C139S, C232A, C266S, C340S), fluorophore-labelled (human, C139S (stands in the printed letters) | C232A (stands in the printed letters) | …, maleimide Alexa568 (imaging of association and three color imaging) or Alexa488 (FRAP) on cysteine); test: fluorescence (TIRF) microscopy of recruitment to a supported lipid bilayer; His8-p-Nephrin Alexa488 attached to a DOPC bilayer with 1% Ni2+-NTA DOGS; 1 uM Nck Alexa568 alone in solution; 25 mM Hepes pH 7.5, 150 mM NaCl, 1 mM MgCl2, 1 mM BME, 0.1% BSA; settings: both partners purified
T2 construct: extra N-terminal residues printed before Met1, with the only cysteine left in the chain; Nck, human, residues 1-377 with C139S, C232A, C266S, C340S; The methods tell the expression and purification for GST-Nck; that the cysteine-modified form was made the same way is surmised; also called Nck Alexa568; Nck Alexa488; source: E. coli BL21(DE3)T1R, purified; labelled with a maleimide-conjugated …

Row | Binder | Kd [1] | binding result [2]
1 | B1 | 40 nM | 
2 | B2 | 370 nM | binds
